Measured values from article PMC7135905 (Biochemical Journal, 2020).
Where two headings read alike, the source gives them in different places.

Assays:
Experiment in all cases: native MS
[1] = biological target: the molecule itself
[2] = biological target: the molecule itself; remark: listed apart in the source
[3] = biological target: the molecule itself; remark: listed apart in the source
[4] = biological target: the molecule itself; remark: listed apart in the source
[5] = biological target: the molecule itself; remark: listed apart in the source
[6] = biological target: the molecule itself; remark: listed apart in the source

Protein | percent dimer (dimer/monomer ratio) [1] [%] | percent dimer (dimer/monomer ratio) [2] [%] | percent dimer (dimer/monomer ratio) [3] [%] | percent dimer (dimer/monomer ratio) [4] [%] | percent dimer (dimer/monomer ratio) [5] [%] | percent dimer (dimer/monomer ratio) [6] [%] | stoichiometry N [6]
CtRocCOR (RocCOR construct of the Roco protein from Chlorobium tepidum, a.a. 412-946) (domain or fragment) DNPLESPPPEIVKQGKEAVRQYFQSIEEARSKGEALVHLQEIKVHLIGDGMAGKTSLLKQLIGETFDPKESQTHGLNVVTKQAPNIKGLENDDELKECLFHFWDFGGQEIMHASHQFFMTRSSVYMLLLDSRTDSNKHYWLRHIEKYGGKSPVIVVMNKIDENPSYNIEQKKINERFPAIENRFHRISCKNGDGVESIAKSLKSAVLHPDSIYGTPLAPSWIKVKEKLVEATTAQRYLNRTEVEKICNDSGITDPGERKTLLGYLNNLGIVLYFEALDLSEIYVLDPHWVTIGVYRIINSSKTKNGHLNTSALGYILNEEQIRCDEYDPAKNNKFTYTLLEQRYLLDIMKQFELCYDEGKGLFIIPSNLPTQIDNEPEITEGEPLRFIMKYDYLPSTIIPRLMIAMQHQILDRMQWRYGMVLKSQDHEGALAKVVAETKDSTITIAIQGEPRCKREYLSIIWYEIKKINANFTNLDVKEFIPLPGHPDELVEYKELLGLEKMGRDEYVSGKLEKVFSVSKMLDSVISKEERNKER | ~90 | ~38 | ~20 | ~26 | ~87 | ~97 | 2
CtRocCOR L487A mutant (domain or fragment) DNPLESPPPEIVKQGKEAVRQYFQSIEEARSKGEALVHLQEIKVHLIGDGMAGKTSLLKQLIGETFDPKESQTHGANVVTKQAPNIKGLENDDELKECLFHFWDFGGQEIMHASHQFFMTRSSVYMLLLDSRTDSNKHYWLRHIEKYGGKSPVIVVMNKIDENPSYNIEQKKINERFPAIENRFHRISCKNGDGVESIAKSLKSAVLHPDSIYGTPLAPSWIKVKEKLVEATTAQRYLNRTEVEKICNDSGITDPGERKTLLGYLNNLGIVLYFEALDLSEIYVLDPHWVTIGVYRIINSSKTKNGHLNTSALGYILNEEQIRCDEYDPAKNNKFTYTLLEQRYLLDIMKQFELCYDEGKGLFIIPSNLPTQIDNEPEITEGEPLRFIMKYDYLPSTIIPRLMIAMQHQILDRMQWRYGMVLKSQDHEGALAKVVAETKDSTITIAIQGEPRCKREYLSIIWYEIKKINANFTNLDVKEFIPLPGHPDELVEYKELLGLEKMGRDEYVSGKLEKVFSVSKMLDSVISKEERNKER | ~100 | ~85 | ~11 | ~96 |  |  | 
